Test results from article PMC11757143, “Generation and characterization of OX40-ligand fusion protein that agonizes OX40 on T-Lymphocytes” (Frontiers in Immunology, 2025).

Legend:
OX40-Fc = molecular target: T1, OX40-Fc (Mus musculus, UniProt P47741); parameters: method as in PMID 36450532, PMID 37371066; conditions: previous studies; ref [23], [24]; cited from earlier work
T1 construct: made in house
T1 sequence (P47741 20-211 limits assumed): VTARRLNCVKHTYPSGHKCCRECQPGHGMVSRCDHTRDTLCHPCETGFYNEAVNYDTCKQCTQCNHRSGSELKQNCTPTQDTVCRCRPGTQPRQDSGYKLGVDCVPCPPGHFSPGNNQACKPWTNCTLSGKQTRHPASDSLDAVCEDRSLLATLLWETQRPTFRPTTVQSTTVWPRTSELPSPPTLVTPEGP

[1] = system: antigen-specific T cell responses of draining lymph node cells; assay: Antigen recall responses of dLN cells from TNP-KLH/CFA-immunized mice (cytokine ELISA, MTT proliferation); type: in vivo, C57BL/6 mice; conditions: 20 µg i.p. on days 1 and 3, TNP-KLH/CFA day 0, dLN day 7, KLH recall 3 days
Text: The following reagents were used for the measurement of cytokines from T cells: anti-IL-2 (JES6-1A12, 503701, BioLegend, San Diego, CA, U.S.A.) capture antibody, biotin-anti-IL-2 (JES6-5H4, 503803, BioLegend) detection antibody, anti-IFN-γ (R4-6A2, 505702, BioLegend) capture antibody, biotin-anti-IFN-γ (XMG1.2, 505804, BioLegend) detection antibody, anti-IL-4 (11B11, 504101, BioLegend) capture antibody, biotin-anti-IL-4 (BVD6-24G2, 504201, BioLegend) detection antibody, anti-IL-17A (TC11-18H10.1, 506901, BioLegend) capture antibody, biotin-anti-IL-17A (TC11-8H4, 507001, BioLegend) detection antibody, HRP streptavidin (405210, BioLegend), and 3,3’,5,5’-tetramethylbenzidine (TMB, 421101, BioLegend). The absorbance was measured at 450 nm or 620 nm using a FilterMax F5 (Molecular Devices, San Jose, CA, U.S.A.).
Groups of C57BL/6 mice from both male and female mice aged between 5 and 15 weeks were immunized subcutaneously at the footpad with 100 µg of 2,4,6-trinitrophenyl-conjugated keyhole limpet hemocyanin (TNP-KLH) emulsified in complete Freund’s adjuvant (CFA) (F5881, Merck) on day 0. Recombinant proteins in PBS were injected intraperitoneally on days 1 and 3. […] Cell viability on day 3 was assessed with a 3-(4,5-dimethylthiazol-2-yl)-2,5-diphenyl-tetrazolium (MTT) (M2128, Merck) assay.

Substance: MBL-OX40L: Fusion protein: PA peptide tag, collagen-like domain of mannose-binding lectin, extracellular TNF homology domain of mouse OX40L
- specific interaction with OX40 (OX40-Fc): specifically interact with OX40

Substance: Fc-MBL-OX40L: Fusion protein: human IgG1 Fc (hinge, CH2, CH3), PA, MBL collagen-like domain, OX40L THD
- antigen-specific T cell responses (recall IFN-γ, IL-17, IL-4 production and proliferation of dLN cells) [1]: failed to effectively stimulate in vivo T cell responses
